B1: 3B3 scFv-Fc fusion (Fc fusion)
chain: DIQMTQSPSSLSASVGDRVTITCRASQDVGFYVNWFQQKPGKAPRRLIYRATNLADGVPSRFSGSRSGTDFTLTISSLQPEDFATYYCLEFDEHPLTFGGGTKVEIKDGGGSGGGGSGGGGSSEVQLVESGGGLVQPGGSLRLSCAASGFTFNNYWMTWVRQAPGKGLEWVASIDNSGDNTYYPDSVKDRFTISRDNAKNSLYLQMNSLRAEDTAVYYCARGGDITTGLDYWGQGTLVTVSS
notes: not shown: wild-type human IgG Fc (hinge and constant domains)
B2: 1G6 scFv-Fc fusion (Fc fusion)
chain: B1 chain with T227N, L229F
notes: as for B1
B3: 3B2 scFv-Fc fusion (Fc fusion)
chain: B1 chain with F31I, T226L, T227V
notes: as for B1
B4: 10H6 scFv-Fc fusion (Fc fusion)
chain: B1 chain with R18G, R24Q, F31I, D108N, V240E
notes: also called 10H6 (a); not shown: wild-type human IgG Fc (hinge and constant domains)
B5: 2E6 scFv-Fc fusion (Fc fusion)
chain: B1 chain with F31I, S122N, G132V, T227N
notes: also called 2E6 (c); not shown: wild-type human IgG Fc (hinge and constant domains)
B6: 3D2 scFv-Fc fusion (Fc fusion)
chain: B1 chain with F31I, T226R, T227V, G228S, Y231H
notes: as for B1
B7: 5H3 scFv-Fc fusion (Fc fusion)
chain: B1 chain with F31I, Y49D, Q126L, L229F
notes: as for B1
B8: 3A6 scFv-Fc fusion (Fc fusion)
chain: B1 chain with F31I, T226L, T227V, G228S, Y231V
notes: as for B1
B9: 3A6 scFv (scFv)
scFv: B1 chain with F31I, T226L, T227V, G228S, Y231V
B10: 6G4 scFv (scFv)
scFv: B1 chain with F31I, T226L, T227D, G228S, D230H, Y231F
B11: 3D2 scFv (scFv)
scFv: B1 chain with F31I, T226R, T227V, G228S, Y231H
B12: 6C2 scFv (scFv)
scFv: B1 chain with F31I, T226K, T227V, G228S, Y231R
B13: 6B2 scFv (scFv)
scFv: B1 chain with F31I, T226R, T227V, Y231V
B14: 3G5 scFv (scFv)
scFv: B1 chain with F31I, T226L, T227D, G228S, D230P
B15: 6C3 scFv (scFv)
scFv: B1 chain with F31I, T227L, Y231V
B16: 3B2 scFv (scFv)
scFv: B1 chain with F31I, T226L, T227V
B17: 6B6 scFv (scFv)
scFv: B1 chain with F31I, T226I, T227I, G228S, Y231W
B18: 6E3 scFv (scFv)
scFv: B1 chain with F31I, T226R, T227V, G228S, Y231F
B19: 6A12 scFv (scFv)
scFv: B1 chain with F31I, E90Q, F91Y, E93A, L229F
B20: 3G3 scFv (scFv)
scFv: B1 chain with F31I, T226K, T227V, G228S, Y231H
B21: 6E5 scFv (scFv)
scFv: B1 chain with F31I, T226R, T227V, G228M, Y231V
B22: 3D6 scFv (scFv)
scFv: B1 chain with F31I, T226R, T227V, G228M, Y231L
B23: 3B7 scFv (scFv)
scFv: B1 chain with F31I, E90Q, E93S, L229F
B24: 6A10 scFv (scFv)
scFv: B1 chain with F31I, E90Q, E93A, L229F
B25: 3B9 scFv (scFv)
scFv: B1 chain with F31I, E90Q, E93N, L229F
B26: 3C6 scFv (scFv)
scFv: B1 chain with F31I, T226V, T227V, Y231H
B27: 3G8 scFv (scFv)
scFv: B1 chain with F31I, E90Q, F91Y, E93A, L229F
B28: 3E8 scFv (scFv)
scFv: B1 chain with F31I, E90Q, E93V, L229F
B29: 6C11 scFv (scFv)
scFv: B1 chain with F31I, E90Q, F91Y, E93A, L229F
B30: 6C10 scFv (scFv)
scFv: B1 chain with F31I, E90Q, L229F
B31: 3D5 scFv (scFv)
scFv: B1 chain with F31I, T226K, T227V, Y231L

Residue numbers refer to the chain shown, from its start.

T1 sequence (Q15109 23-342): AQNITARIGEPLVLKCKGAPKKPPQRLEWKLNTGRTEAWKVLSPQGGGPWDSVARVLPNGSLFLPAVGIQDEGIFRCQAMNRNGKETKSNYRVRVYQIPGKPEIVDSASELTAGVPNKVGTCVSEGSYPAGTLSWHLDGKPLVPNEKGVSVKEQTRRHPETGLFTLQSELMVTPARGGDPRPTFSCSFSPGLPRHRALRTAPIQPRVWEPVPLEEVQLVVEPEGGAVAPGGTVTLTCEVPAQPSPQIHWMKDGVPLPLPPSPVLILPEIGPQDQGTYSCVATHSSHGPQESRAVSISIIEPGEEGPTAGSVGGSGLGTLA

The first test addresses T1, HU-RAGE-SA (human, UniProt Q15109 23-342).
T1 construct: extracellular domain; Directly immobilized on a CM5 chip (~100 RU); also called hRAGE-SA; soluble human streptavidin-tagged RAGE; not shown: streptavidin tag (SA)
Put plainly: BIAcore, 10 nM scFv-Fc over directly immobilized HU-RAGE-SA, 1:1 fit.
By koff is commonly meant a measure of how fast the partners let go of each other. B1 registered a koff of 0.00649 s⁻¹.

In turn, B2 returned a koff of 0.000438 s⁻¹.

Consider B3, for which the koff worked out at 0.000684 s⁻¹.

Consider B4, for which the koff came out at 0.00116 s⁻¹.

Regarding B5, the koff amounted to 0.00114 s⁻¹.

Turning to B6, the koff came to 0.00391 s⁻¹.

B7 returned a koff of 0.0826 s⁻¹.

B8: the dissociation rate constant (koff) was determined as 0.000867 s⁻¹.

In another test the target is T2, human RAGE expressed on CHO cells (human, UniProt Q15109 23-404).
T2 construct: whole, on cells; also called CHO-RAGE cells; cell surface expressed human RAGE
T2 sequence (Q15109 23-404): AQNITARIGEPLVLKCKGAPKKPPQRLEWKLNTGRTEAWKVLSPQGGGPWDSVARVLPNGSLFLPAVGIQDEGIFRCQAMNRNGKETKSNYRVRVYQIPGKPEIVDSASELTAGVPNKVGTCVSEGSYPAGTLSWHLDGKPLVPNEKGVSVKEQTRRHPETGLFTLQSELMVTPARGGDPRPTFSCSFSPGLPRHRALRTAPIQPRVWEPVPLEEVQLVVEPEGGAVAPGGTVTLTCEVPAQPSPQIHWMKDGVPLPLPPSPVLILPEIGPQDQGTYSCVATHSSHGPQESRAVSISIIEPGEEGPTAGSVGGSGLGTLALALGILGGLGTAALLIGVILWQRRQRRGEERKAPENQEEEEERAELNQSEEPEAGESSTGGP
Put plainly: cell ELISA on CHO-RAGE cells, A450 corrected for control CHO cells. As for the experimental part:
Stably transfected Chinese Hamster Ovary (CHO) cells were engineered to express murine and human RAGE full length proteins. The murine and human RAGE cDNAs were cloned into the mammalian expression vector pSMED, linearized and transfected into CHO cells using lipofectin methods (Kaufman, R. J., 1990, Methods in Enzymology 185:537-66; Kaufman, R. J., 1990, Methods in Enzymology 185:487-511; Pittman, D. D. et al., 1993, Methods in Enzymology 222: 236). Cells were further selected in 20 nM methotrexate and cell extracts were harvested from individual clones and analyzed by SDS sodium dodecyl sulfate-polyacrylamide gel electrophoresis (SDS-PAGE) and Western blotting to confirm expression. […] Absorbance 450 nm values were corrected for the same clones binding to control CHO cells not expressing RAGE. EC50 values were calculated after curve fitting using GraphPad prism and are expressed in μg/ml.
(In general: In an ELISA, binding on a coated surface is turned into a signal by an enzyme label.)
By EC50 is commonly meant the concentration needed to bring the measured effect to its halfway point. A lower EC50 goes with greater potency. On to B1, for which the EC50 came out at 0.541 µg/mL.

Molecule B2 came in with an EC50 of 0.188 µg/mL.

As to B3, the EC50 came out at 0.0335 µg/mL.

Molecule B5 returned an EC50 of 0.113 µg/mL.

Molecule B6 showed an EC50 of 0.136 µg/mL.

In the case of B8, a half-maximal effect (EC50) was put at 0.0673 µg/mL.

For another test, the target named is T1, HU-RAGE-SA. Put plainly: BIAcore kd against parental M4 scFv-Fc.
Turning to B1, the “Fold change in kd” value was found to be 4.5 fold.

B2: the “Fold change in kd” value was determined as 66.9 fold.

Turning to B3, the “Fold change in kd” value is 42.8 fold.

Turning to B4, the “Fold change in kd” value was 25.3 fold.

In the case of B5, the “Fold change in kd” value turned out to be 25.7 fold.

Take B6: the “Fold change in kd” value was found to be 7.4 fold.

For the molecule B7, the “Fold change in kd” value is 0.35 fold.

Regarding B8, the “Fold change in kd” value came out at 33.8 fold.

The next test deals with T3, hRAGE-Fc (human, UniProt Q15109 23-342, biotin label in the selections and HTRF assays).
T3 construct: extracellular domain; also called biotin labeled hRAGE-Fc; Biotin-labeled RAGE-Fc; not shown: Fc part
T3 sequence (Q15109 23-342): as the sequence (Q15109 23-342) above
Put plainly: HTRF competition, scFv vs labelled parental XT-M4 (competitor) on hRAGE. As for the experimental part: (§1) Increases in binding to RAGE antigen were detected with the aid of a competition assay using parental XT-M4 antibody. Both phage display and ribosome display libraries were selected for affinity improved variants by incubating with biotin labeled hRAGE-Fc, recovering binding clones using streptavidin magnetic beads and washing away non binding variants. Sequential rounds of selection were carried on decreasing antigen concentrations to drive the preferential recovery of higher affinity variants. Clones recovered after selection were subsequently screening for improved binding to hRAGE-Fc using HTRF. This is an assay that measures the decrease in fluorescence upon binding of parental europium cryptate-labeled XT-M4 to RAGE in the presence of competing test scFv antibodies. In these assays, periplasmic preparations of scFv were prepared from bacterial cultures and added in increasing concentrations to a combination of parental antibody and antigen. The ability of the scFV to compete with parental XT-M4 antibody to bind to Biotin-labeled RAGE-Fc was determined. In the presence of avidin-XL665 complex labeled XT-M4 bound to biotinylated RAGE-FC was detected by Fluorescence. Increasing amounts of scFv that competed with the XT-M4 for binding to biotinylated-RAGE-Fc was detected as a decrease in fluorescence. A sequential process of screening was used to focus in on a smaller number of clones with the greatest competition in HTRF assay
In general terms: Time-resolved FRET reads energy transfer from a long-lived donor to a nearby acceptor.
A word on the IC50: it is the concentration that inhibits the measured activity by half. For B9, the IC50 stood at 0.47 nM.

On to B10, for which the half-inhibitory concentration (IC50) was determined as 2.03 nM.

As for B11, the IC50 turned out to be 1.27 nM.

For the molecule B12, the IC50 stood at 0.73 nM.

On to B13, for which the IC50 worked out at 1.77 nM.

On to B14, for which the IC50 turned out to be 0.87 nM.

On to B15, for which the IC50 stood at 1.53 nM.

In the case of B16, the IC50 came out at 0.92 nM.

Consider B17, for which the IC50 stood at 0.65 nM.

For a further test, the target named is T3, hRAGE-Fc. Put plainly: IC50 of parental M4 scFv over IC50 of clone, HTRF competition. As for the experimental part:
as §1
For the molecule B9, the “Fold gain scFv (hRAGE)” value turned out to be 70 fold.

For the molecule B10, the “Fold gain scFv (hRAGE)” value came out at 16.2 fold.

In the case of B11, the “Fold gain scFv (hRAGE)” value worked out at 26 fold.

As to B12, the “Fold gain scFv (hRAGE)” value worked out at 48.2 fold.

For B13, the “Fold gain scFv (hRAGE)” value amounted to 18.6 fold.

As to B14, the “Fold gain scFv (hRAGE)” value amounted to 37.9 fold.

Turning to B15, the “Fold gain scFv (hRAGE)” value was determined as 21.5 fold.

With B16, the “Fold gain scFv (hRAGE)” value is 35.8 fold.

Take B17: the “Fold gain scFv (hRAGE)” value worked out at 50.7 fold.

In another test the target is T3, hRAGE-Fc. Put plainly: HTRF competition, scFv vs labelled parental XT-M4 (competitor) on biotin hRAGE-Fc. As for the experimental part: as §1
B9: the IC50 is 0.474 nM.

For B18, the IC50 was 1.75 nM.

Take B10: the IC50 turned out to be 2.03 nM.

In the case of B19, the IC50 was 8.27 nM.

With B20, the IC50 was 1.44 nM.

Turning to B11, the IC50 came to 1.27 nM.

Consider B21, for which the IC50 amounted to 2.25 nM.

As to B12, the IC50 was determined as 0.731 nM.

On to B22, for which the IC50 turned out to be 2.92 nM.

On to B23, for which the IC50 amounted to 7.35 nM.

Consider B13, for which the IC50 stood at 1.77 nM.

As for B24, the IC50 amounted to 6.94 nM.

Consider B25, for which the IC50 stood at 10.6 nM.

For the molecule B26, the IC50 was determined as 1.26 nM.

On to B27, for which the IC50 was 8.08 nM.

Take B14: the IC50 stood at 0.87 nM.

Turning to B28, the IC50 stood at 7.21 nM.

With B29, the IC50 is 9.03 nM.

For the molecule B15, the IC50 stood at 1.53 nM.

On to B30, for which the IC50 worked out at 7.38 nM.

For B31, the half-inhibitory concentration (IC50) is 3 nM.

With B16, the IC50 was 0.917 nM.

Turning to B17, the IC50 came out at 0.645 nM.

The target in the next test is T3, hRAGE-Fc. Put plainly: IC50 of parental M4 scFv-Fc over IC50 of clone, HTRF competition.
On to B1, for which the “Fold gain scFv-Fc (hRAGE)” value came out at 8.8 fold.

In the case of B2, the “Fold gain scFv-Fc (hRAGE)” value amounted to 6.4 fold.

With B3, the “Fold gain scFv-Fc (hRAGE)” value came out at 34.2 fold.

For B4, the “Fold gain scFv-Fc (hRAGE)” value worked out at 13.7 fold.

Turning to B5, the “Fold gain scFv-Fc (hRAGE)” value came out at 6.9 fold.

Take B6: the “Fold gain scFv-Fc (hRAGE)” value was 31.3 fold.

Turning to B7, the “Fold gain scFv-Fc (hRAGE)” value was 6.1 fold.

On to B8, for which the “Fold gain scFv-Fc (hRAGE)” value turned out to be 9.9 fold.

The record behind these values is patent US20100143349A1 (Pfizer, published 2010).
